Results from paper PMC12457548, “Comparative Characterization of Plasmodium falciparum Small Heat Shock Proteins and Their Inhibition by Quercetin (3,3′,4′,5,7-Pentahydroxyflavone)” (The Protein Journal, 2025).

B1: PfHsp20a (natural protein, Plasmodium falciparum, UniProt Q8IES0 1-211, looked up)
chain: MSENNLSKDNNKNKRNEALENAGMLDTFFESMYDHMNRLDQYHSDMNRMMNSLRGYYMNNDFFRFFPNRRSLTDYDINRNRNHDLLLSKPFSSMFRRDGYSNVPAMDVLDKEKHLEIKMDVPGLNKEDVQINLDDGKLEISGEFKKSHEQKDEQQRYYIKERCESSFYRSFTLPENVSEDEIKATFKDGVLKIDIPKKDIPDKKKKKIEID
notes: Codon-harmonised synthetic gene in pQE30 between BamHI and HindIII; forms large oligomers in solution by DLS; also called PF3D7_1304500; P. falciparum Hsp20; source: E. coli XL1 Blue, purified (IMAC)
B2: PfHsp20c (natural protein, Plasmodium falciparum, UniProt Q8I5T9 1-231, looked up)
chain: MSTTNILKPKIIIESSKEQGVGEKRSSTLSAPFEKNMFSTYSYSNPISNMRSSTHNEYKYNWTKYVNSSQIPHVDEYIKTFEGPNTTYYYETIPLKTNTNNIFEITPSQEELSRISYNPKIEIYSTCDFAVLMMDIPGVSKENLKVELEKGLLKVYGNKYKPHIEELEKRNEYHTKIIERLNEYYFCKIFQMPPAFSEGQNISCKLNNGELLVKILANELKTQKKVIDIQS
notes: Codon-harmonised synthetic gene in pQE30 between BamHI and HindIII; forms large oligomers in solution by DLS; also called PF3D7_1211100; P. falciparum Hsp20; source: E. coli XL1 Blue, purified (IMAC)
B3: PfHsp20b (natural protein, Plasmodium falciparum, UniProt Q8IB02 1-172, looked up)
chain: MSCLCAGSTDQGEMKMAPPDYRIDIKEKPSIPKSKNALVNPNTVLEIEPDNNLKKQITFRPKVDIMYDADKCEAILVLDIPGFKIEDIDVEIGEGMLTVAGPRSQTELFETYGDSLVLHAKEREVGYFKRIFKLPNNILDDTAKATYKNGILEIKMECKQFSDMHKVTINQG
notes: Codon-harmonised synthetic gene in pQE30 between BamHI and HindIII; forms oligomers in solution by DLS; also called PF3D7_0816500; P. falciparum Hsp20; source: E. coli XL1 Blue, purified (IMAC)

Assays:
PfHsp20b = biological target: T1, PfHsp20b (Plasmodium falciparum, UniProt Q8IB02); test: inhibition of chaperone activity (suppression of heat-induced MDH/CS aggregation); CD, DSF and DLS shifts also measured; assay type: biochemical
T1 construct: gene PF3D7_0816500; full-length, residues 1–173, N-terminal 6xHis
T1 sequence (Q8IB02 1-172): B3 chain

PfHsp20a = biological target: T2, PfHsp20a (Plasmodium falciparum, UniProt Q8IES0); test: as above; assay type: biochemical
T2 construct: gene PF3D7_1304500; full-length, residues 1–211, N-terminal 6xHis

PfHsp20c = biological target: T3, PfHsp20c (Plasmodium falciparum, UniProt Q8I5T9); test: as above; assay type: biochemical
T3 construct: gene PF3D7_1211100; full-length, residues 1–231, N-terminal 6xHis

[1] = biological target: the molecule itself; test: dynamic light scattering; as a1 but in the presence of 3 uM quercetin; 20 mM Tris pH 7.4, 300 mM NaCl, 25 °C; oligomer size estimated from the hydrodynamic radius
[2] = biological target: the molecule itself; test: dynamic light scattering; 0-6 uM protein alone in 20 mM Tris pH 7.4, 300 mM NaCl, 25 °C; oligomer size estimated from the average hydrodynamic radius with the fluidic webserver

Molecule | IC50 (PfHsp20b) | IC50 (PfHsp20a) | IC50 (PfHsp20c) | stoichiometry N [1] | stoichiometry N [2]
O=c1c(O)c(-c2ccc(O)c(O)c2)oc2cc(O)cc(O)c12 [quercetin, 3,3′,4′,5,7-pentahydroxyflavone] | 550 ± 100 nM | 320 ± 110 nM | 110 ± 70 nM |  | 
B1 |  |  |  | 40 | 
B2 |  |  |  | 35 | 
B3 |  |  |  | 37 | ~38
